We go through five variants from IntAct's records for PubMed 36931259.

B1: Serine/threonine-protein kinase PAK 5 (Homo sapiens), Q9P286 (parent)
chain: MFGKKKKKIEISGPSNFEHRVHTGFDPQEQKFTGLPQQWHSLLADTANRPKPMVDPSCITPIQLAPMKTIVRGNKPCKETSINGLLEDFDNISVTRSNSLRKESPPTPDQGASSHGPGHAEENGFITFSQYSSESDTTADYTTEKYREKSLYGDDLDPYYRGSHAAKQNGHVMKMKHGEAYYSEVKPLKSDFARFSADYHSHLDSLSKPSEYSDLKWEYQRASSSSPLDYSFQFTPSRTAGTSGCSKESLAYSESEWGPSLDDYDRRPKSSYLNQTSPQPTMRQRSRSGSGLQEPMMPFGASAFKTHPQGHSYNSYTYPRLSEPTMCIPKVDYDRAQMVLSPPLSGSDTYPRGPAKLPQSQSKSGYSSSSHQYPSGYHKATLYHHPSLQSSSQYISTASYLSSLSLSSSTYPPPSWGSSSDQQPSRVSHEQFRAALQLVVSPGDPREYLANFIKIGEGSTGIVCIATEKHTGKQVAVKKMDLRKQQRRELLFNEVVIMRDYHHDNVVDMYSSYLVGDELWVVMEFLEGGALTDIVTHTRMNEEQIATVCLSVLRALSYLHNQGVIHRDIKSDSILLTSDGRIKLSDFGFCAQVSKEVPKRKSLVGTPYWMAPEVISRLPYGTEVDIWSLGIMVIEMIDGEPPYFNEPPLQAMRRIRDSLPPRVKDLHKVSSVLRGFLDLMLVREPSQRATAQELLGHPFLKLAGPPSCIVPLMRQYRHH
partner: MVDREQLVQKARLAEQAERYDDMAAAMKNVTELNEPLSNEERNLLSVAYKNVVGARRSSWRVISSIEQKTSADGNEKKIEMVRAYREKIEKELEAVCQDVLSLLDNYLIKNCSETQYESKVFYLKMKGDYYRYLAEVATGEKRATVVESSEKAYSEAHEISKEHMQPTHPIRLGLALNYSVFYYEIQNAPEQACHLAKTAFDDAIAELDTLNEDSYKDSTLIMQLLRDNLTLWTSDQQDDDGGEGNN
B2: 14-3-3 protein sigma (Homo sapiens), P31947 (parent)
chain: MERASLIQKAKLAEQAERYEDMAAFMKGAVEKGEELSCEERNLLSVAYKNVVGGQRAAWRVLSSIEQKSNEEGSEEKGPEVREYREKVETELQGVCDTVLGLLDSHLIKEAGDAESRVFYLKMKGDYYRYLAEVATGDDKKRIIDSARSAYQEAMDISKKEMPPTNPIRLGLALNFSVFHYEIANSPEEAISLAKTTFDEAMADLHTLSEDSYKDSTLIMQLLRDNLTLWTADNAGEEGGEAPQEPQS
partner: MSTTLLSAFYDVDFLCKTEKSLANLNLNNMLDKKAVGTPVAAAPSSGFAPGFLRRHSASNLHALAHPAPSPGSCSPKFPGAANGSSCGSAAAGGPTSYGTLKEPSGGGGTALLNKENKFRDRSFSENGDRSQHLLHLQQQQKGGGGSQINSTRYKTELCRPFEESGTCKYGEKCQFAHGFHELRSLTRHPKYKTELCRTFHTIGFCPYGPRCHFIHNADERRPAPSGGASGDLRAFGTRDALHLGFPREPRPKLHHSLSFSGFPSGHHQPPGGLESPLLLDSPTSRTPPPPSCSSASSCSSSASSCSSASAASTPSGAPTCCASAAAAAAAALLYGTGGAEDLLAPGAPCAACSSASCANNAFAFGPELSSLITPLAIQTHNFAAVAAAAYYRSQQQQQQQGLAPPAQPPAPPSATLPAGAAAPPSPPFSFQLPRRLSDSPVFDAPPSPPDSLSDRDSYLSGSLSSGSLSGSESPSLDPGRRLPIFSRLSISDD
B3: Protein Smaug homolog 1 (Homo sapiens), Q9UPU9 (parent)
chain: MMFRDQVGVLAGWFKGWNECEQTVALLSLLKRVSQTQARFLQLCLEHSLADCAELHVLEREANSPGIINQWQQESKDKVISLLLTHLPLLKPGNLDAKVEYMKLLPKILAHSIEHNQHIEESRQLLSYALIHPATSLEDRSALAMWLNHLEDRTSTSFGGQNRGRSDSVDYGQTHYYHQRQNSDDKLNGWQNSRDSGICINASNWQDKSMGCENGHVPLYSSSSVPTTINTIGTSTSTILSGQAHHSPLKRSVSLTPPMNVPNQPLGHGWMSHEDLRARGPQCLPSDHAPLSPQSSVASSGSGGSEHLEDQTTARNTFQEEGSGMKDVPAWLKSLRLHKYAALFSQMTYEEMMALTECQLEAQNVTKGARHKIVISIQKLKERQNLLKSLERDIIEGGSLRIPLQELHQMILTPIKAYSSPSTTPEARRREPQAPRQPSLMGPESQSPDCKDGAAATGATATPSAGASGGLQPHQLSSCDGELAVAPLPEGDLPGQFTRVMGKVCTQLLVSRPDEENISSYLQLIDKCLIHEAFTETQKKRLLSWKQQVQKLFRSFPRKTLLDISGYRQQRNRGFGQSNSLPTAGSVGGGMGRRNPRQYQIPSRNVPSARLGLLGTSGFVSSNQRNTTATPTIMKQGRQNLWFANPGGSNSMPSRTHSSVQRTRSLPVHTSPQNMLMFQQPEFQLPVTEPDINNRLESLCLSMTEHALGDGVDRTSTI
partner: B1 partner
B4: Glutamate receptor-interacting protein 1 (Homo sapiens), Q9Y3R0-3 (parent)
chain: MIAVSFKCRCQILRRLTKDESPYTKSASQTKPPDGALAVRRQSIPEEFKGSTVVELMKKEGTTLGLTVSGGIDKDGKPRVSNLRQGGIAARSDQLDVGDYIKAVNGINLAKFRHDEIISLLKNVGERVVLEVEYELPPVSVQGSSVIFRTVEVTLHKEGNTFGFVIRGGAHDDRNKSRPVVITCVRPGGPADREGTIKPGDRLLSVDGIRLLGTTHAEAMSILKQCGQEAALLIEYDVSVMDSVATASGPLLVEVAKTPGASLGVALTTSMCCNKQVIVIDKIKSASIADRCGALHVGDHILSIDGTSMEYCTLAEATQFLANTTDQVKLEILPHHQTRLALKGPDHAALVSSSFSPTSMSAYSLSSLNMGTLPRSLYSTSPRGTMMRRRLKKKDFKSSLSLASSTVGLAGQVVHTETTEVVLTADPVTGFGIQLQGSVFATETLSSPPLISYIEADSPAERCGVLQIGDRVMAINGIPTEDSTFEEASQLLRDSSITSKVTLEIEFDVAESVIPSSGTFHVKLPKKHNVELGITISSPSSRKPGDPLVISDIKKGSVAHRTGTLELGDKLLAIDNIRLDNCSMEDAVQILQQCEDLVKLKIRKDEDNSDEQESSGAIIYTVELKRYGGPLGITISGTEEPFDPIIISSLTKGGLAERTGAIHIGDRILAINSSSLKGKPLSEAIHLLQMAGETVTLKIKKQTDAQSASSPKKFPISSHLSDLGDVEEDSSPAQKPGKLSDMYPSTVPSVDSAVDSWDGSAIDTSYGTQGTSFQASGYNFNTYDWRSPKQRGSLSPVTKPRSQTYPDVGLSYEDWDRSTASGFAGAADSAETEQEENFWSQALEDLETCGQSGILRELEEKADRRVSLRNMTLLATIMSGSTMSLNHEAPTPRSQLGRQASFQERSSSRPHYSQTTRSNTLPSDVGRKSVTLRKMKQEIKEIMSPTPVELHKVTLYKDSDMEDFGFSVADGLLEKGVYVKNIRPAGPGDLGGLKPYDRLLQVNHVRTRDFDCCLVVPLIAESGNKLDLVISRNPLASQKSIDQQSLPGDWSEQNSAFFQQPSHGGNLETREPTNTL
partner: B1 partner
B5: 14-3-3 protein sigma (Homo sapiens), P31947 (parent)
chain: B2 chain
partner: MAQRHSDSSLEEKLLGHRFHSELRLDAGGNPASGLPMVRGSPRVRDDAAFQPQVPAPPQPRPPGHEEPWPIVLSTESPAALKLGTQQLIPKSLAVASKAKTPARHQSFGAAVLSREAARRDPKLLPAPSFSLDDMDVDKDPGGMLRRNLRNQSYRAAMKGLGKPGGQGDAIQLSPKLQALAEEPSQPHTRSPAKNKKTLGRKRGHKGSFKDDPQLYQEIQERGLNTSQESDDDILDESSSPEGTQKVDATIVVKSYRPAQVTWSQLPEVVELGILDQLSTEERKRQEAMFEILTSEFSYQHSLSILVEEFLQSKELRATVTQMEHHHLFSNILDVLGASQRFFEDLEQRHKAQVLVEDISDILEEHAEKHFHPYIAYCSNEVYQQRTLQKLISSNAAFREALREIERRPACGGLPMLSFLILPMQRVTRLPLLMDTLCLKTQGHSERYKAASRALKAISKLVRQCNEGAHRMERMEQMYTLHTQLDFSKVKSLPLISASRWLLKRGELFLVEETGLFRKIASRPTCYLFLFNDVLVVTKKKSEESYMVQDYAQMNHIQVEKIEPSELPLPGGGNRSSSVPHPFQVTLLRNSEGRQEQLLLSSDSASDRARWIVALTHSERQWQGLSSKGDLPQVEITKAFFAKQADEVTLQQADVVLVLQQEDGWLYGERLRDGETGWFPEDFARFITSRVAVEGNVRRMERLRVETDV

Variants of B1 are the subject of the first assay. Particulars: with 1433g_human YWHAG.
In the case of S99A;S270A;S290A;T317A;T349A, the “effect of a mutation on the interaction” value was “decreasing interaction strength”.

Variants of B2 are the subject of a further assay. Particulars: with tisd_human ZFP36L2, P47974.
Turning to MERASLIQKAKLAEQAERYEDMAAFMKGAVEKGEELSCEERNLLSVAYENVVGGQEAAWRVLSSIEQKSNEEGSEEKGPEVREYREKVETELQGVCDTVLGLLDSHLIKEAGDAESRVFYLKMKGDYYRYLAEVATGDDKKRIIDSARSAYQEAMDISKKEMPPTNPIRLGLALNFSDFHYEIANSPEEAISLAKTTFDEAMADLHTLSEDSYKDSTLIMQLLRDNLTLWTADNAGEEGGEAPQEPQS [K49E;R56E;V178D], the “effect of a mutation on the interaction” value is “decreasing interaction strength”.

The next assay covers variants of B3. The settings on record: with 1433g_human YWHAG.
As to S168A;S183A;S254A;S580A;S665A;T717A, the “effect of a mutation on the interaction” value is listed as “decreasing interaction strength”.

Variants of B4 are the subject of the next assay. The settings on record: with 1433g_human YWHAG.
On to T17A;S43A;S901A;T920A, for which the “effect of a mutation on the interaction” value is reported as “disrupting interaction strength”.

The next assay covers variants of B5. Particulars: with arhgg_human ARHGEF16, Q5VV41.
For the variant MERASLIQKAKLAEQAERYEDMAAFMKGAVEKGEELSCEERNLLSVAYENVVGGQEAAWRVLSSIEQKSNEEGSEEKGPEVREYREKVETELQGVCDTVLGLLDSHLIKEAGDAESRVFYLKMKGDYYRYLAEVATGDDKKRIIDSARSAYQEAMDISKKEMPPTNPIRLGLALNFSDFHYEIANSPEEAISLAKTTFDEAMADLHTLSEDSYKDSTLIMQLLRDNLTLWTADNAGEEGGEAPQEPQS [K49E;R56E;V178D], the “effect of a mutation on the interaction” value is recorded as “decreasing interaction strength”.
